Results published in article PMC6003227 (Molecular Biology of the Cell, 2018).

Molecular target: T1, MBP-Cdc12(1–765-6A) (S. pombe, UniProt Q10059 1-765, T20A | T22A | S64A | T95A | T151A | S463A)
T1 sequence (looked up): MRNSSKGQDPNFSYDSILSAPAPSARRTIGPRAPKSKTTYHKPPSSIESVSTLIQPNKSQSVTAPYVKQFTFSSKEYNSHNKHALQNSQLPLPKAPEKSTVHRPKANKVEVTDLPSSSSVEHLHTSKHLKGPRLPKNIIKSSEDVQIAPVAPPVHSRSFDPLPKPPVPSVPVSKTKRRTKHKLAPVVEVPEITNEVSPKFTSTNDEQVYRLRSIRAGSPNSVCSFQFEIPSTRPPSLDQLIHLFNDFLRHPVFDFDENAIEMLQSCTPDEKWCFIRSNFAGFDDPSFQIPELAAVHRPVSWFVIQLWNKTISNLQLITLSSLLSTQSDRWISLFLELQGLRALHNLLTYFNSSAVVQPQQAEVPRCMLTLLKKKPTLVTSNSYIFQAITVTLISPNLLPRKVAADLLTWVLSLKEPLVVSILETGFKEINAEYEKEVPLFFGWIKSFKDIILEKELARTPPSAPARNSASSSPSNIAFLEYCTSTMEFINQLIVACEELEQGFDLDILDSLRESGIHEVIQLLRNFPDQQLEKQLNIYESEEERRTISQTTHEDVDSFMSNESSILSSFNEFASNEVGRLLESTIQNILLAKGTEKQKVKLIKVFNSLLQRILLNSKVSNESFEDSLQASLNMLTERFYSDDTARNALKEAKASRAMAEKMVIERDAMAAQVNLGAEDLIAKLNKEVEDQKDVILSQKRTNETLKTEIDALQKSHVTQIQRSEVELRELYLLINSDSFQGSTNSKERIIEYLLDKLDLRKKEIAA
Assay: pull-down

B1: Cdc15 F-BAR(19–312) (domain or fragment, S. pombe, UniProt Q09822 19-312, looked up)
chain: SVKFRDNFWGSEDAGMDALMSRTKSSLSVLESIDEFYAKRASIEREYASKLQELAASSADIPEVGSTLNNILSMRTETGSMAKAHEEVSQQINTELRNKIREYIDQTEQQKVVAANAIEELYQKKTALEIDLSEKKDAYEYSCNKLNSYMRQTKKMTGRELDKYNLKIRQAALAVKKMDAEYRETNELLLTVTREWIDRWTEVCDAFQHIEEYRLEFLKTNMWAYANIISTACVKDDESCEKIRLTLENTNIDEDITQMIQNEGTGTTIPPLPEFNDYFKENGLNYDIDQLISK
- binding result: binds
